In patent JP2018153172A (dated 2018):
Blank lines part the entries; values can stand above or below the binder they belong to. Ends that are not written are not given here.

Assays:
[1] = molecular target: T1, SEQ ID NO 110 (15-residue oligopeptide of human gp130) (human, also: linker added for immobilisation); test: peptide microarray, antibody at 10 ug/mL, fluorescence
T1 construct: also called 配列番号110
T1 peptide: VIILKYNIQYRTKDA

[2] = molecular target: T2, SEQ ID NO 109 (15-residue oligopeptide of human gp130) (human, also: linker added for immobilisation); test: as above
T2 construct: also called 配列番号109
T2 peptide: KSVIILKYNIQYRTK

[3] = molecular target: T3, SEQ ID NO 108 (15-residue oligopeptide of human gp130) (human, also: linker added for immobilisation); test: as above
T3 construct: also called 配列番号108
T3 peptide: SIKSVIILKYNIQYR

[4] = molecular target: T4, SEQ ID NO 128 (15-residue oligopeptide of human gp130) (human, also: linker added for immobilisation); test: as above
T4 construct: also called 配列番号128
T4 peptide: DLKPFTEYVFRIRCM

[5] = molecular target: T5, SEQ ID NO 127 (15-residue oligopeptide of human gp130) (human, also: linker added for immobilisation); test: as above
T5 construct: also called 配列番号127
T5 peptide: VQDLKPFTEYVFRIR

[6] = molecular target: T6, 可溶性ヒトgp130受容体 (soluble human gp130 receptor, extracellular region of SEQ ID NO 1 with six histidines) (human, UniProt P40189 23-619); test: ELISA, immobilised soluble human gp130, recombinant antibody from COS1 cells
T6 construct: Secreted from CHO DG44 cells and purified on HisTrap; no cleavage site is stated; also called 可溶性ヒトgp130受容体タンパク質; ヒト可溶性gp130受容体
T6 sequence: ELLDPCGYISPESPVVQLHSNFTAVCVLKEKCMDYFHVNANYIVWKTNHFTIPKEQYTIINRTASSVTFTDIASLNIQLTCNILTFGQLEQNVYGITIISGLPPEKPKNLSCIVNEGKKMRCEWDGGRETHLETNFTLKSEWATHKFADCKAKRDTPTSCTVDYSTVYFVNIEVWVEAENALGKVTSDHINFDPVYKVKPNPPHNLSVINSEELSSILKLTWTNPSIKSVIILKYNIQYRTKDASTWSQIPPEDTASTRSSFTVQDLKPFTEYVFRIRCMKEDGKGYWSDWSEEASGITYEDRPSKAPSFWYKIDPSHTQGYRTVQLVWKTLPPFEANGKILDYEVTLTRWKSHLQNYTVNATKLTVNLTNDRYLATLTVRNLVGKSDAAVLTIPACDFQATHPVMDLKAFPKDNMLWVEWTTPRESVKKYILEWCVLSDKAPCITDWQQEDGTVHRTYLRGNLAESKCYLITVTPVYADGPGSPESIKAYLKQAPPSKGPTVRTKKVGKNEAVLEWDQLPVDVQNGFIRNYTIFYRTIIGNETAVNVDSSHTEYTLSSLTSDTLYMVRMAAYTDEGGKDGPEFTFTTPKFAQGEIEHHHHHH

[7] = molecular target: T6, 可溶性ヒトgp130受容体 (soluble human gp130 …); test: SPR, Biacore T200, gp130 on CM5 (4023 RU), COS1 supernatant as analyte, off-rate screening
[8] = molecular target: T6, 可溶性ヒトgp130受容体 (soluble human gp130 …); test: SPR, Biacore T200, gp130 amine-coupled on CM5 (389 RU), antibody as analyte

B3: ヒト化抗体A (H鎖 pFU-AH2, L鎖 AL−6E6) (antibody, V domains shown)
VH: QVQLQQPGAELVQPGTSVRLSCKASGYTFTDYNMDWVKQRPGQGLEWIGDINSHSGGIIYNQKFKDKATLTVDKSSSTAYMQLSSLTSEDSAVYYCTRTYYVYGHFFDYWGQGTLVTVSA
VL: ELVLTQSPGTLSLSAGERATLSCNVSSSVTSMYWYQQKPGKAPKLLIYLTSNLASGVPSRFSGSGSGTDYTFTISSLQPEDIATYYCQQWSTNPLTFGQGTKVEIKR
notes: also called AL-L6E6 with AH2
binding result [7]: binds

B4: ヒト化抗体A (H鎖 pFU-AH2, L鎖 AL−14A10) (antibody, V domains shown)
VH: B3 VH
VL: DIQMTQSPSTLSASIGDRVTITCNVSSSVTSMYWYQQKPGKAPKLLIYLTSNLASGVPSRFSGSGSGTDFTLTISSLQPEDFATYYCQQWSTNPLTFGQGTKLEIKR
notes: also called AL-L14A10 with AH2
binding result [7]: binds

Other lines, results leading:

binding result [1]: binds
binding result [2]: binds
binding result [3]: binds
binding result [4]: binds
binding result [5]: binds
binding result [6]: binds
B1: 抗体C (antibody C, mouse anti-human gp130 monoclonal antibody) (antibody, V domains shown)
VH: EVQVVESGGDLLLPGGSLKLSCAVSGFTFNAYGMSWVRQTPDKRLELVATINSNGDSTYYPDSVKGRFTISRDNAKHTLYLQMSSLKSEDTAMYYCANFYGGFPYWGQGTLVTVSA
VL: VIVLTQSHKFMSTSVGDRVSITCKASQDVDTAVAWYQQKVGHSPKLLIYWAVTRHTGVPDRFTGSGSGTDFTLTISNVQSEDLADYFCQQYSSYPYTFGGGTKLEIKR
notes: Mouse IgG2a, kappa; Entries are the polypeptides as encoded by the cDNA (leader probably included)

binding result [1]: binds
binding result [2]: binds
binding result [3]: binds
binding result [4]: binds
binding result [5]: binds
binding result [6]: binds
B2: 抗体B (antibody B, mouse anti-human gp130 monoclonal antibody) (antibody, V domains shown)
VH: EVQLQQSGAELVKPGASVKLSCTASGFNIRDTYMHWVKQRPEQGLEWIGRIDPANGNTKYDPKFQDKATMTADTSSNTAYLQLSSLTSEDTAVYYCARRGNYFYAMDYWGQGTSVTVSS
VL: DIVLTQSPASLAVSLGQRATISCRASESVEYYGTSLMQWYQQKPGQPPKLLIYVASNVESGVPARFSGSGSGTDFSLNIHPVEEDDIAMYFCQQSRKVPWTFGGGTKLEIKR
notes: Mouse IgG2b, kappa; Entries are the polypeptides as encoded by the cDNA (leader probably included)

Kd [8]: 2.27 nM
koff [8]: 0.000203 s⁻¹
kon [8]: 89300 M⁻¹ s⁻¹
B5: ヒト化抗体AH2−L13H10 (antibody, V domains shown)
VH: B3 VH
VL: EIVLTQSPDFQSVTPKEKVTITCNVSSSVTSMYWYQQKPGKAPKLLVYLTSNLASGVPSRFSGSGSGTDFTLTINSLEAEDAATYYCQQWSTNPLTFGQGTKLEIKR
notes: also called AH2−13H10; AH2 with AL-13H10 (AL-L13H10)
